Columns and labels:
[1] = tested on: human PARP; test: Western blot analysis of PARP cleavage after incubation with recombinant enzyme; type: biochemical; details: Western blot with 4C10-5 antibody
Description: In apoptotic cells, nuclear proteins such as PARP, lamins and the 70-kDa protein component of the U1 small nuclear ribonucleoprotein are cleaved specifically by an unknown ICE-like cysteine protease(s). Cleavage of human PARP at the DEVD (SEQ ID NO:9) site (amino acid 211-214) would generate a large protein product of predicted molecular mass of 89.3 kDa (amino acids 215-1014). Western blot analysis of human PARP after incubation with recombinant Mch2α, Mch2β, ICEγ or CPP32 was performed using the 4C10-5 antibody. This antibody recognizes an epitope in the 41 kDa C-terminal chymotryptic fragment of PARP. CPP32 cleaved PARP to generate a major band of ˜90 kDa and a minor band of 57 kDa. The 90 kDa band was most probably generated by cleaving the DEVD (SEQ ID NO:9) site at residue 214 of PARP. This cleavage product is believed to correspond to an 85 kDa PARP cleavage product which has been described in apoptotic cells. The 57 kDa cleavage product is probably generated by cleavage at a site C-terminal to the DEVD (SEQ ID NO:9) site. This product was not detected with the C-2-10 antibody used in a previous study. This is probably because it recognizes an epitope that is N-terminal to the epitope that is recognized by the 4C10-5 antibody used in the present study. Mch2α also cleaved PARP to generate a major product of ˜83 kDa and a minor product of ˜57 kDa similar to that obtained with CPP32. PARP was not cleaved by Mch2β or ICEγ. […] Furthermore, the deletion in Mch2β abrogates its enzymatic activity.

[2] = tested on: YVAD-AMC (SEQ ID NO:8); test: cleavage of fluorogenic peptide YVAD-AMC by bacterial extracts expressing GST-fusion enzymes; type: biochemical; details: for ability to cleave the YVAD substrate: total bacterial extracts, GST-fusion proteins
Description: (§1) To determine the enzymatic activity of Mch2, CPP32 or ICE, these enzymes were expressed in E. coli as fusion proteins with glutathione S-transferase (GST). A GST-CPP32-p20 fusion protein that contains amino acids 1-175 of CPP32 and a GST nonfusion protein were used as controls. After induction with IPTG, bacterial extracts were prepared from E. coli expressing the recombinant fusion proteins. The extracts were absorbed to glutathione-Sepharose resin, washed several times and then analyzed by SDS-PAGE. The ICEγ, CPP32 and Mch2α preparations containing GST-fusion proteins ranged in size from ˜28-35 kDa. The GST nonfusion protein control migrated as a ˜27-28 kDa protein. […] Aps26 of ICEγ which corresponds to Asp 119 of ICEα is a site that is cleaved during ICE activation. Cleavage at this site would generate a GST-fusion protein with a predicted molecular mass of ˜29 kDa that might correspond to the 31 kDa band. Cleavage at Asp 3 of ICEγ, although it is not a known ICE cleavage site, could generate the 28 kDa band (lane 2). Similar to the GST-ICEγ preparation, the GST-CPP32 and GST-Mch2 preparations contain smaller than predicted GST fusion products. The GST-CPP32 fusion product migrates as a ˜29-30 kDa protein. Cleavaae at Asp9 or Asp28 of CPP32 would generate products with predicted molecular masses of ˜27.3 kDa or ˜29.4 kDa, respectively. Based on the observed size of the GST-CPP32 product, CPP32 is most probably cleaved at Asp28, although it is possible that both sites are cleaved during CPP32 autoprocessing. Unlike the GST-CPP32 which contains full length CPP32, the GST-CPP32-p20 product which contains a truncated CPP32 migrates as a ˜46 kDa protein that agreed with its predicted molecular mass. […] Therefore if CPP32 is cleaved at Asp28, CPP32 appears to be made up of two subunits of relative molecular masses of 17 kDa and 11 kDa. However, the exact Asp cleavage sites that are utilized to generate active CPP32 remains to be determined by amino acid sequencing. The GST-Mch2α preparation contains two major bands that migrate as ˜31-32 kDa and ˜34-35 kDa proteins. This is consistent with cleavage at Asp23, Asp32 or Asp40 of Mch2α. These GST-Mch2α cleavage products are larger than the GST-CPP32 product because of the presence of extra 33 amino acids in the GST-Mch2α fusion construct that are derived from the 5′ untranslated region of Mch2α. A minor band of ˜27 kDa is also present in this preparation that could be due to cleavage at a site near the C-terminus of the GST peptide itself. The majority of GST-Mch2β was expressed in E. coli in […] and was not cleaved.
After establishing that Mch2 and CPP32 can autoprocess in bacteria, their enzymatic activity were tested using two fluorogenic peptide substrates, YVAD-AMC (SEQ ID NO:8) and DEVD-AMC (SEQ ID NO:3). The YVAD (SEQ ID NO:8) […] is the ICE cleavage site in pro-IL1β and the DEVD (SEQ ID NO:9) tetrapeptide is a site present in PARP that is cleaved by an ICE-like protein during apoptosis. The enzymatic activities of Mch2α, Mch2β, CPP32 and ICEγ, in total bacterial extracts from cells expressing these enzymes as GST-fusion proteins was studied using the YVAD-AMC (SEQ ID NO:8) and DEVD-AMC (SEQ ID NO:3) tetrapeptides as substrates. […] The purified GST-fusion products or the GST control extract had no enzymatic activity with either of the substrates.

[3] = tested on: Sf9 cells; test: apoptosis of Sf9 cells infected with recombinant baculovirus expressing the protein; type: cell-based, insect; details: polyhedron promoter
Description: To test whether expression of Mch2α has a similar apoptotic effect, Sf9 cells were infected with a recombinant baculovirus expressing Mch2α or Mch2β under the polyhedron promoter. Cells were also infected with the wild type virus and the recombinant ICE baculovirus as controls.

[4] = tested on: DEVD-AMC (SEQ ID NO:3); test: cleavage of fluorogenic peptide DEVD-AMC by bacterial extracts expressing GST-fusion enzymes; type: biochemical; details: for ability to cleave the DEVD substrate: total bacterial extracts, GST-fusion proteins
Description: as §1
After establishing that Mch2 and CPP32 can autoprocess in bacteria, their enzymatic activity were tested using two fluorogenic peptide substrates, YVAD-AMC (SEQ ID NO:8) and DEVD-AMC (SEQ ID NO:3). […]

B1: Mch2β: alternatively spliced shorter Mch2 isoform, 204 amino acid ~23 kDa protein, SEQ ID NO:7 (protein)
chain: MSSASGLRRGHPAVSTVSHADADCFVCVFLSHGEGNHIYAYDAKIEIQTLTGLFKGDKCHSLVGKPKIFIIQACRGNQHDVPVIPLDVVDNQTEKLDTNITEVDAASVYTLPAGADFLMCYSVAEGYYSHRETVNGSWYIQDLCEMLGKYGSSLEFTELLTLVNRKVSQRRVDFCKDPSAIGKKQVPCFASMLTKKLHFFPKSN
- cleavage of PARP [1]: not cleaved
- ability to cleave the YVAD substrate [2]: No detectable enzymatic activity

B2: Mch2α: full length Mch2 isoform, 293 amino acid ~34 kDa Ced-3/ICE-like cysteine protease, SEQ ID NO:5 (protein)
chain: MSSASGLRRGHPAGGEENMTETDAFYKREMFDPAEKYKMDHRRRGIALIFNHERFFWHLTLPERRRTCADRDNLTRRFSDLGFEVKCFNDLKAEELLLKIHEVSTVSHADADCFVCVFLSHGEGNHIYAYDAKIEIQTLTGLFKGDKCHSLVGKPKIFIIQACRGNQHDVPVIPLDVVDNQTEKLDTNITEVDAASVYTLPAGADFLMCYSVAEGYYSHRETVNGSWYIQDLCEMLGKYGSSLEFTELLTLVNRKVSQRRVDFCKDPSAIGKKQVPCFASMLTKKLHFFPKSN
- cleavage of PARP [1]: cleaved PARP
- characteristic signs of apoptosis (membrane blebbing, nuclear fragmentation and condensation, internucleosomal DNA cleavage) [3]: several characteristic signs of apoptosis
- viability of infected cells [3]: decrease in viability
- ability to cleave the DEVD substrate [4]: able to cleave
- ability to cleave the YVAD substrate [2]: No detectable enzymatic activity

B3: CPP32: human Cpp32 (Mch1) apoptotic cysteine protease, expressed as GST-fusion protein (protein)
chain: MENTENSVDSKSIKNLEPKIIHGSESMDSGISLDNSYKMDYPEMGLCIIINNKNFHKSTGMTSRSGTDVDAANLRETFRNLKYEVRNKNDLTREEIVELMRDVSKEDHSKRSSFVCVLLSHGEEGIIFGTNGPVDLKKITNFFRGDRCRSLTGKPKLFIIQACRGTELDCGIETDSGVDDDMACHKIPVEADFLYAYSTAPGYYSWRNSKDGSWFIQSLCAMLKQYADKLEFMHILTRVNRKVATEFESFSFDATFHAKKQIPCIVSMLTKELYFYH
- cleavage of PARP [1]: cleaved PARP
- activity in cleaving the DEVD substrate relative to ICEγ or Mch2α ([4]; from initial rate of the reactions, assuming similar amount of each enzyme in extracts): ~150 fold
- ability to cleave the DEVD substrate [4]: able to cleave
- ability to cleave the YVAD substrate [2]: able to cleave

B4: ICEγ: isoform of interleukin-1 β converting enzyme (ICE), expressed as GST-fusion protein (protein)
chain: MADKVLKEKRKLFIRSMGEAPQAVQDNPAMPTSSGSEGNVKLCSLEEAQRIWKQKSAEIYPIMDKSSRTRLALIICNEEFDSIPRRTGAEVDITGMTMLLQNLGYSVDVKKNLTASDMTTELEAFAHRPEHKTSDSTFLVFMSHGIREGICGKKHSEQVPDILQLNAIFNMLNTKNCPSLKDKPKVIIIQACRGDSPGVVWFKDSVGVSGNLSLPTTEEFEDDAIKKAHIEKDFIAFCSSTPDNVSWRHPTMGSVFIGRLIEHMQEYACSCDVEEIFRKVRFSFEQPDGRAQMPTTERVTLTRCFYLFPGH
- cleavage of PARP [1]: not cleaved
- ability to cleave the DEVD substrate [4]: able to cleave
- activity in cleaving the YVAD substrate relative to CPP32 ([2]; ICEγ versus CPP32): about 3 fold
- ability to cleave the YVAD substrate [2]: able to cleave

B5: ICE: mammalian interleukin-1 β converting enzyme, expressed from recombinant ICE baculovirus as control (protein)
chain: MADKVLKEKRKLFIRSMGEAPQAVQDNPAMPTSSGSEGNVKLCSLEEAQRIWKQKSAEIYPIMDKSSRTRLALIICNEEFDSIPRRTGAEVDITGMTMLLQNLGYSVDVKKNLTASDMTTELEAFAHRPEHKTSDSTFLVFMSHGIREGICGKKHSEQVPDILQLNAIFNMLNTKNCPSLKDKPKVIIIQACRGDSPGVVWFKDSVGVSGNLSLPTTEEFEDDAIKKAHIEKDFIAFCSSTPDNVSWRHPTMGSVFIGRLIEHMQEYACSCDVEEIFRKVRFSFEQPDGRAQMPTTERVTLTRCFYLFPGH
- characteristic signs of apoptosis (membrane blebbing, nuclear fragmentation and condensation, internucleosomal DNA cleavage) [3]: several characteristic signs of apoptosis

From patent US6359127B1, “MCH2, an apoptotic cysteine protease, and compositions for making and methods of using the same” (Thomas Jefferson University, priority 1995, dated 2002)
